Results on six variants are retold here after publication PMC9687537.

B1: GFP–WDR34-WT [human] / DYNLL2 [human (endogenous in RPE1)] (parent)
chain 1: MATRAQPGPLSQAGSAGVAALATVGVASGPGPGRPGPLQDETLGVASVPSQWRAVQGIRWETKSCQTASIATASASAQARNHVDAQVQTEAPVPVSVQPPSQYDIPRLAAFLRRVEAMVIRELNKNWQSHAFDGFEVNWTEQQQMVSCLYTLGYPPAQAQGLHVTSISWNSTGSVVACAYGRLDHGDWSTLKSFVCAWNLDRRDLRPQQPSAVVEVPSAVLCLAFHPTQPSHVAGGLYSGEVLVWDLSRLEDPLLWRTGLTDDTHTDPVSQVVWLPEPGHSHRFQVLSVATDGKVLLWQGIGVGQLQLTEGFALVMQQLPRSTKLKKHPRGETEVGATAVAFSSFDPRLFILGTEGGFPLKCSLAAGEAALTRMPSSVPLRAPAQFTFSPHGGPIYSVSCSPFHRNLFLSAGTDGHVHLYSMLQAPPLTSLQLSLKYLFAVRWSPVRPLVFAAASGKGDVQLFDLQKSSQKPTVLIKQTQDESPVYCLEFNSQQTQLLAAGDAQGTVKVWQLSTEFTEQGPREAEDLDCLAAEVAA
chain 2: not shown
B2: GFP–WDR34-WT [human] / LIC3 [human (endogenous in RPE1)] (parent)
chain 1: B1 chain 1
chain 2: MPSETLWEIAKAEVEKRGINGSEGDGAEIAEKFVFFIGSKNGGKTTIILRCLDRDEPPKPTLALEYTYGRRAKGHNTPKDIAHFWELGGGTSLLDLISIPITGDTLRTFSLVLVLDLSKPNDLWPTMENLLQATKSHVDKVIMKLGKTNAKAVSEMRQKIWNNMPKDHPDHELIDPFPVPLVIIGSKYDVFQDFESEKRKVICKTLRFVAHYYGASLMFTSKSEALLLKIRGVINQLAFGIDKSKSICVDQNKPLFITAGLDSFGQIGSPPVPENDIGKLHAHSPMELWKKVYEKLFPPKSINTLKDIKDPARDPQYAENEVDEMRIQKDLELEQYKRSSSKSWKQIELDS
B3: GFP–WDR34-WT [human] / WDR60 [human (endogenous in RPE1)] (parent)
chain 1: B1 chain 1
chain 2: MEPGKRRTKDDTWKADDLRKHLWAIQSGGSKEERKHREKKLRKESEMDLPEHKEPRCRDPDQDARSRDRVAEVHTAKESPRGERDRDRQRERRRDAKDREKEKLKEKHREAEKSHSRGKDREKEKDRRARKEELRQTVAHHNLLGQETRDRQLLERAERKGRSVSKVRSEEKDEDSERGDEDRERRYRERKLQYGDSKDNPLKYWLYKEEGERRHRKPREPDRDNKHREKSSTREKREKYSKEKSNSFSDKGEERHKEKRHKEGFHFDDERHQSNVDRKEKSAKDEPRKRESQNGEHRNRGASSKRDGTSSQHAENLVRNHGKDKDSRRKHGHEEGSSVWWKLDQRPGGEETVEIEKEETDLENARADAYTASCEDDFEDYEDDFEVCDGDDDESSNEPESREKLEELPLAQKKEIQEIQRAINAENERIGELSLKLFQKRGRTEFEKEPRTDTNSSPSRASVCGIFVDFASASHRQKSRTQALKQKMRSTKLLRLIDLDFSFTFSLLDLPPVNEYDMYIRNFGKKNTKQAYVQCNEDNVERDIQTEEIETREVWTQHPGESTVVSGGSEQRDTSDAVVMPKIDTPRLCSFLRAACQVMAVLLEEDRLAAEPSWNLRAQDRALYFSDSSSQLNTSLPFLQNRKVSSLHTSRVQRQMVVSVHDLPEKSFVPLLDSKYVLCVWDIWQPSGPQKVLICESQVTCCCLSPLKAFLLFAGTAHGSVVVWDLREDSRLHYSVTLSDGFWTFRTATFSTDGILTSVNHRSPLQAVEPISTSVHKKQSFVLSPFSTQEEMSGLSFHIASLDESGVLNVWVVVELPKADIAGSISDLGLMPGGRVKLVHSALIQLGDSLSHKGNEFWGTTQTLNVKFLPSDPNHFIIGTDMGLISHGTRQDLRVAPKLFKPQQHGIRPVKVNVIDFSPFGEPIFLAGCSDGSIRLHQLSSAFPLLQWDSSTDSHAVTGLQWSPTRPAVFLVQDDTSNIYIWDLLQSDLGPVAKQQVSPNRLVAMAAVGEPEKAGGSFLALVLARASGSIDIQHLKRRWAAPEVDECNRLRLLLQEALWPEGKLHK

One assay covers variants of B1. Put plainly: GFP-trap purification, TMT-labelling and mass spectrometry. The note with it: with DYNLL2 [human (endogenous in RPE1)]; RPE1 WDR34 KO cell lines expressing GFP proteins, serum-starved for 24 h; read off a plot.
Turning to chain 1 T354M, the ratio to parent is 1.5.

The next assay covers variants of B2. The assay is described as above. As to conditions: with LIC3 [human (endogenous in RPE1)]; RPE1 WDR34 KO cell lines expressing GFP proteins, serum-starved for 24 h; read off a plot.
Consider chain 1 A341V, for which the ratio to parent was 2.2.

In a further assay the parent is B3. The assay is described as above. The note with it: with WDR60 [human (endogenous in RPE1)]; RPE1 WDR34 KO cell lines expressing GFP proteins, serum-starved for 24 h; read off a plot.
Consider chain 1 K436R, for which the ratio to parent worked out at 1.4.

chain 1 R182W: the ratio to parent was found to be 1.7.

Consider chain 1 A341V, for which the ratio to parent was 1.3. On the same count and under the same terms, then chain 1 R206C, with 1.5.
